According to IntAct's records for PubMed 27150041:

Biological target: smu2_caeel smu-2 (UniProt Q9N4U5)
Sequence (Q9N4U5 whole entry): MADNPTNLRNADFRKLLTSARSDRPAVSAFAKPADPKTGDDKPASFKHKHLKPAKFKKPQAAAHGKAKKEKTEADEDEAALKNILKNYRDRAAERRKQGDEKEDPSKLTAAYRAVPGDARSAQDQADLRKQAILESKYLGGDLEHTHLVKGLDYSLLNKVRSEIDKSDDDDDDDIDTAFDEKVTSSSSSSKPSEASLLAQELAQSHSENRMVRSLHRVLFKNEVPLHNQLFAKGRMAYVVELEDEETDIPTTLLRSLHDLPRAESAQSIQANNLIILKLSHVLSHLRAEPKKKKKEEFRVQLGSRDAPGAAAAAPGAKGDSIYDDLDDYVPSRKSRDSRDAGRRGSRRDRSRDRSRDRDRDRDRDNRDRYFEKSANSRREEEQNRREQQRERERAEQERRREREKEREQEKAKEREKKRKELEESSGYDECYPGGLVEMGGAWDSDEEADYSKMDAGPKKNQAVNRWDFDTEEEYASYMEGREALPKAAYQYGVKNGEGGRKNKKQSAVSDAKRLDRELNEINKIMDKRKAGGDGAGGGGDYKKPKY

Chain of Smu-1 suppressor of mec-8 and unc-52 protein (Caenorhabditis elegans), G5EEG7 L96R (G5EEG7 whole entry L96R): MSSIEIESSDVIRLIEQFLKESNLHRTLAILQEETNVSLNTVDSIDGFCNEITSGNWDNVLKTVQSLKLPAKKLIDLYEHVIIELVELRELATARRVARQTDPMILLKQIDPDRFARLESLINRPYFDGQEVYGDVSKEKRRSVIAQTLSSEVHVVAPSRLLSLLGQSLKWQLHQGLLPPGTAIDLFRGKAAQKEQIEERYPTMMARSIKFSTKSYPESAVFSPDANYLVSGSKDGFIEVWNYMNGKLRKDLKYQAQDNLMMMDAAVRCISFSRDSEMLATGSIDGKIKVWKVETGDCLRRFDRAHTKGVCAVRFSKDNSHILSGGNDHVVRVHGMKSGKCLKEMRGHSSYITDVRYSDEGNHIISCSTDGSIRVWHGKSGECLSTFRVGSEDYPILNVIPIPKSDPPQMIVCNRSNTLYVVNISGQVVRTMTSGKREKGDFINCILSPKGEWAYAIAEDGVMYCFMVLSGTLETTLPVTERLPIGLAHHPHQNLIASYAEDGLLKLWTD

- effect of a mutation on the interaction: disrupting interaction strength
Substance: Smu-1 suppressor of mec-8 and unc-52 protein (Caenorhabditis elegans), G5EEG7 L96R
